Measurements published in patent US7964369 (Stanford University, dated 2011).

Target: T1, SOS vector alone (hSOS without GRAIL) (human, UniProt Q07889 1-1066)
T1 construct: Negative control bait of the yeast two-hybrid screen
T1 sequence (looked up): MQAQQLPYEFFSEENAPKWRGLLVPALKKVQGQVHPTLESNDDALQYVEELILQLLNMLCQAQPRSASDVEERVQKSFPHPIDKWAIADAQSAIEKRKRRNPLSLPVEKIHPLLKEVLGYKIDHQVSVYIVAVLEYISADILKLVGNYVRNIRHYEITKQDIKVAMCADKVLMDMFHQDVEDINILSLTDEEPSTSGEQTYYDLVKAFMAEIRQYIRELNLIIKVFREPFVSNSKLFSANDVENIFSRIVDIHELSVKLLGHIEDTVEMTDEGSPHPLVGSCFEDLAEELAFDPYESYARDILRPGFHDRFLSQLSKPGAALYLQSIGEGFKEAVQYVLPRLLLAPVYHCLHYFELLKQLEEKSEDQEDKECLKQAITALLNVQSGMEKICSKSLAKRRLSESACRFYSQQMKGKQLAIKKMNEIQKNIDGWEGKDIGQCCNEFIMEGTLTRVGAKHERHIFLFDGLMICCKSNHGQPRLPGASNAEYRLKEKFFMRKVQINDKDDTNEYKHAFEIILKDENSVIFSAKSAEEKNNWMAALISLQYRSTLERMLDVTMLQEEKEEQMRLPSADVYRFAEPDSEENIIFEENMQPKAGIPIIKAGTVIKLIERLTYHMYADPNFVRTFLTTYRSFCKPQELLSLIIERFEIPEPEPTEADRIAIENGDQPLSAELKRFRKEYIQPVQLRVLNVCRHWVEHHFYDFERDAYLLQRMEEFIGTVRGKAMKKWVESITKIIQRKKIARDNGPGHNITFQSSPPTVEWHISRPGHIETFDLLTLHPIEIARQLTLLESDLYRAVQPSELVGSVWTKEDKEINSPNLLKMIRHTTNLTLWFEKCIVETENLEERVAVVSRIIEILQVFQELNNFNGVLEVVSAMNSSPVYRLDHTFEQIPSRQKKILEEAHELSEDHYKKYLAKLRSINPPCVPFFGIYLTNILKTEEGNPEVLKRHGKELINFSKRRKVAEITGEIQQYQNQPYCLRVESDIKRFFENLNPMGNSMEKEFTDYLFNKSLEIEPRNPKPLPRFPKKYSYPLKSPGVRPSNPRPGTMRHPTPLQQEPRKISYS
Experiment: yeast two-hybrid (CytoTrap), secondary screen, growth on galactose at 37 C
Protocol: Table I: A mouse liver library cloned into pMyr vector was purchased from Stratagene (La Jolla, CA). The C-terminal half of GRAIL, starting at F225 was PCR amplified, cloned into the pSOS vector, and used as bait. Yeast competent cells were co-transformed with either the bait and library or control vectors as described in the CytoTrap instruction manual (Stratagene). More than 5 x 10^5 clones were screened. Colonies displaying growth on galactose but not glucose at 37° C. were considered to be putative positives and were evaluated in a secondary screen. Colonies growing in the secondary screen on galactose at 37° C. and in the presence of the GRAIL-SOS bait vector, but not the SOS vector alone, were considered true interactors and sequenced.
Yeast and bacterial two-hybrid analysis. A mouse liver library cloned into pMyr vector was purchased from Stratagene (La Jolla, Calif.). The C-terminal half of Grail, starting at F225, was PCR amplified, cloned into the pSOS vector, and used as bait. Yeast competent cells were co-transformed with either the bait and library or control vectors as described in the CytoTrap instruction manual (Stratagene). More than 5 ×10^5 clones were screened. Colonies displaying growth on galactose but not glucose at 37° C. were considered to be putative positives and were used on a secondary screen. […]

binding result: no binding
B1: clone 6A-36 (98% identical to human FLJ20113, OTUBAIN-1) (enzyme, mouse, UniProt Q7TQI3 97-271, looked up)
chain: GFSHLEALLDDSKELQRFKAVSAKSKEDLVSQGFTEFTIEDFHNTFMDLIEQVEKQTSVADLLASFNDQSTSDYLVVYLRLLTSGYLQRESKFFEHFIEGGRTVKEFCQQEVEPMCKESDHIHIIALAQALSVSIQVEYMDRGEGGTTNPHVFPEGSEPKVYLLYRPGHYDILYK
notes: Partial clone of mouse otubain-1; also called 525 bp insert; 525 bp cDNA fragment; not shown: myristoylation signal of the pMyr plasmid
